Tested on: ERE (estrogen response element)
Experiment: Reporter gene assay of ERRγ3 alone, ERE luciferase reporter in CV-1 cells
Format: cell-based, African green monkey
Conditions: ERRγ3 expression plasmid alone, FIG. 15
Protocol: In order to construct a reporter gene assay system for evaluation of the transcription-controlling activity of ERRγ3, a reporter plasmid into which ERE (estrogen response element) was inserted was prepared along with expression plasmids for ERRγ3 and ERRγ2, as follows: A reporter gene assay was performed by transfecting the reporter plasmid and expression plasmids into cultured cells by lipofection, followed by incubating the cells for a certain time, treating the cells with cell lysis solution, and measuring reporter activity with a luminometer using a Dual luciferase assay. […]
The transcription-controlling activity of ERRγ3 was evaluated using a reporter gene assay. […]
The reporter gene assay was performed using CV-1 cells (African green monkey kidney-derived cell line) as hosts. […] They were then exposed to 4-hydroxytamoxifen at different concentrations (0, 10^−10 to −10^−5 M) for 24 hours, whereupon luciferase activity within the cells was measured.
Transfection was performed as follows: CV-1 cells were suspended at 2×10^5 cells/2.5 ml in DMEM medium supplemented with 10% fetal bovine serum, 2000 U/l of penicillin G, and 100 mg/l streptomycin. […] 1 μg of each of the transcription factor expression plasmid, the luciferase reporter plasmid, and another luciferase reporter plasmid for normalizing the measured value (pRL-TK), were dissolved in Opti-MEM (Gibco BRL) to total of 150 μl. […]

B1: ERRγ3: novel ERRγ isoform, nuclear receptor protein of 396 amino acids (SEQ ID NO: 2) lacking part of the DNA binding domain (protein, listed as Homo sapiens)
chain: MSNKDRHIDSSCSSFIKTEPSSPASLTDSVNHHSPGGSSDASGSYSSTMNGHQNGLDSPPLYPSAPILGGSGPVRKLYDDCSSTIVEDPQTKCEYMLNSMPKRLCLVCGDIASGYHYGVASCEACKAFFKRTIQGVRLDRVRGGRQKYKRRIDAENSPYLNPQLAQPAKKPYNKIVSHLLVAEPEKIYAMPDPTVPDSDIKALTTLCDLADRELVVIIGWAKHIPGFSTLSLADQMSLLQSAWMEILILGVVYRSLSFEDELVYADDYIMDEDQSKLAGLLDLNNAILQLVKKYKSMKLEKEEFVTLKAIALANSDSMHIEDVEAVQKLQDVLHEALQDYEAGQHMEDPRRAGKMLMTLPLLRQTSTKAVQHFYNIKLEGKVPMHKLFLEMLEAKV
transcription-controlling activity of ERRγ3 by itself: does not comprise the transcription-controlling activity

From patent US20060148030A1, “Nuclear receptor err y 3” (FUJISAWA PHARMACEUTICAL CO., LTD, priority 2002, published 2006)
